Experimental data reported in the supplement of paper PMC10899765.

How the values were obtained:
Conditions in all cases: 20 nM; 72 h
[1] = system: MCF10A; experiment: one-nucleolus phenotype percent effect (relative to siNT 0% and siNOL11 100%); higher = more cells with one nucleolus (ribosome biogenesis inhibition)
Protocol: (§1)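 After 72 h, cells were fixed and stained with Hoechst and anti-fibrillarin, and nucleoli per nucleus were counted with CellProfiler. Values are plate-adjusted percent effect for the one-nucleolus and 5+ nucleoli phenotypes, normalised to siNT (0%) and to the positive controls siNOL11 or siKIF11 (100%), as the mean of biological triplicates. Percent viability is the nuclei count relative to siNT.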

[2] = system: MCF10A; experiment: percent viability (nuclei count relative to siNT); higher = more viable cells
Protocol: as §1

[3] = system: MCF10A; experiment: 5+ nucleoli phenotype percent effect (relative to siNT 0% and siKIF11 100%); higher = more cells with five or more nucleoli
Protocol: as §1

| Sequence | one-nucleolus phenotype percent effect [1] [%] | percent viability [2] [%] | 5+ nucleoli phenotype percent effect [3] [%] |
| --- | --- | --- | --- |
| ACAGGCGGCUGUAGCAAUGGGGG [hsa-miR-3937] | 31.6 | 33.1 | -33.4 |
| ACAGGGAGGAGAUUGUA [hsa-miR-4441] | 46.5 | 18.5 | -15.6 |
| ACAGGGCCGCAGAUGGAGACU [hsa-miR-3918] | 50.3 | 8.55 | -31.2 |
| ACAGGUGAGGUUCUUGGGAGCC [hsa-miR-125a-3p] | 5.16 | 62.4 | -0.517 |
| ACAGUAGAGGGAGGAAUCGCAG [hsa-miR-936] | -2.74 | 61.7 | 14.1 |
| ACAGUAGUCUGCACAUUGGUUA [hsa-miR-199a-3p] | -13.9 | 67.2 | 18.7 |
| ACAGUAGUCUGCACAUUGGUUA [hsa-miR-199b-3p] | -19.3 | 92 | 36.1 |
| ACAGUCUGCUGAGGUUGGAGC [hsa-miR-622] | 8.72 | 86.2 | -4.39 |
| ACAUACUUCUUUAUAUGCCCAU [hsa-miR-1-5p] | 11.9 | 47 | -8.68 |
| ACAUCCUGCUCCACAGGGCAGAGG [hsa-miR-4793-5p] | -10.7 | 52.3 | -0.984 |
| ACAUCGCCCCACCUUCCCCAG [hsa-miR-6785-3p] | -34.4 | 102 | 55.5 |
| ACAUUGCCAGGGAGUUU [hsa-miR-4317] | -2.43 | 45.1 | -11 |
| ACAUUUUCCAGCCCAUUCA [hsa-miR-1250-3p] | 53.7 | 12.3 | -18.3 |
| ACCAAGUCUGCGUCAUCCUCUC [hsa-miR-3691-3p] | -5.26 | 63.2 | 0.0313 |
| ACCACUGACCGUUGACUGUACC [hsa-miR-181a-2-3p] | -14.1 | 120 | 12.6 |
| ACCACUGCACUCCAGCCUGAG [hsa-miR-1273g-3p] | 5.96 | 39.3 | -16.5 |
| ACCAGCCUGUGUCCACCUCCAG [hsa-miR-6849-3p] | 13.6 | 46 | -31 |
| ACCAGCGCGUUUUCAGUUUCAU [hsa-miR-4738-5p] | 7.61 | 51.5 | 13.4 |
| ACCAGGAGGCUGAGGCCCCU [hsa-miR-665] | 40.7 | 30.2 | -29.1 |
| ACCAGGCAAGAAAUAUUGU [hsa-miR-4645-5p] | -4.87 | 87.5 | 5.96 |
| ACCAGGGCCAGCAGGGAAUGU [hsa-miR-6837-5p] | 33.6 | 19.9 | -15 |
| ACCAUCGACCGUUGAUUGUACC [hsa-miR-181a-3p] | -7.58 | 87.3 | 21.1 |
| ACCCAGGUUCCCUCUGGCCGCA [hsa-miR-4726-3p] | 51.3 | 23.9 | -34.6 |
| ACCCCACUCCUGGUACC [hsa-miR-4286] | -13.8 | 48.7 | 39.7 |
